{"source": "patent US20240270846A1", "about": "(published 2024)"}
{"biological_target": "T1, CD3 epsilon homodimer protein (UniProt P07766 23-126)", "T1 construct": "Construct of the homodimer is not described; also called CD3 (CD3 epsilon)", "T1 sequence (P07766 23-126)": "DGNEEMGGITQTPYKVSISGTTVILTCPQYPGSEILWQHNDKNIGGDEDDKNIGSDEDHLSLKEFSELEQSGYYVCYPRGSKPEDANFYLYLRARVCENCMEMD", "assay": "SPR Biacore T200, CD3e homodimer on chip, antibody analyte;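 further: CD3 epsilon homodimer amine-coupled on CM4 sensor chip, antibodies injected as analyte at 25 °C in HBS-EP+, ratio ≥0.8 taken as binding retained versus unaltered parent antibody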"}
{"binder": "GLS3000 V94E one-arm antibody (antibody, human IgG1, kappa, L234A L235A, N297A, name in Kabat numbering) light: DIVMTQSPLSLPVTPGEPASISCRSSQSLVHSNRNTYLHWYQQKPGQAPRLLIYKVSNRFSGVPDRFSGSGSGTDFTLKISRVEAEDVGVYYCGQGTQEPYTFGQGTKLEIKRTVAAPSVFIFPPSDEQLKSGTASVVCLLNNFYPREAKVQWKVDNALQSGNSQESVTEQDSKDSTYSLSSTLTLSKADYEKHKVYACEVTHQGLSSPVTKSFNRGEC heavy: QVQLVESGGGVVQPGRSLRLSCAASGFTFSNAWMHWVRQAPGKGLEWVAQIKAKSNNYATYYAESVKGRFTISRDDSKNSLYLQMNSLKTEDTAVYYCRYVHYGAYYGVDAWGQGTTVTVSSASTKGPSVFPLAPSSKSTSGGTAALGCLVKDYFPEPVTVSWNSGALTSGVHTFPAVLQSSGLYSLSSVVTVPSSSLGTQTYICNVNHKPSNTKVDKKVEPKSCDKTHTCPPCPAPEAAGGPSVFLFPPKPKDTLMISRTPEVTCVVVDVSHEDPEVKFNWYVDGVEVHNAKTKPREEQYASTYRVVSVLTVLHQDWLNGKEYKCKVSNKALPAPIEKTISKAKGQPREPQVYTLPPSRCELTKNQVSLSCAVKGFYPSDIAVEWESNGQPENNYKTTPPVLDSDGSFFLVSKLTVDKSRWQQGNVFSCSVMHEALHNHYTQKSLSLSPDYKDDDDK EPKSSDKTHTCPPCPAPELLGGPSVFLFPPKPKDTLMISRTPEVTCVVVDVSHEDPEVKFNWYVDGVEVHNAKTKPREEQYNSTYRVVSVLTVLHQDWLNGKEYKCKVSNKALPAPIEKTISKAKGQPREPQVCTLPPSRDELTKNQVSLWCLVKGFYPSDIAVEWESNGQPENNYKTTPPVLDSDGSFFLYSKLTVDKSRWQQGNVFSCSVMHEALHNRYTQKSLSLSP", "ratio of amounts bound (altered form/GLS3000)": 0.5}
{"binder": "GLS3000 V94F one-arm antibody (antibody, human IgG1, kappa, L234A L235A, N297A, name in Kabat numbering) light: DIVMTQSPLSLPVTPGEPASISCRSSQSLVHSNRNTYLHWYQQKPGQAPRLLIYKVSNRFSGVPDRFSGSGSGTDFTLKISRVEAEDVGVYYCGQGTQFPYTFGQGTKLEIKRTVAAPSVFIFPPSDEQLKSGTASVVCLLNNFYPREAKVQWKVDNALQSGNSQESVTEQDSKDSTYSLSSTLTLSKADYEKHKVYACEVTHQGLSSPVTKSFNRGEC heavy: QVQLVESGGGVVQPGRSLRLSCAASGFTFSNAWMHWVRQAPGKGLEWVAQIKAKSNNYATYYAESVKGRFTISRDDSKNSLYLQMNSLKTEDTAVYYCRYVHYGAYYGVDAWGQGTTVTVSSASTKGPSVFPLAPSSKSTSGGTAALGCLVKDYFPEPVTVSWNSGALTSGVHTFPAVLQSSGLYSLSSVVTVPSSSLGTQTYICNVNHKPSNTKVDKKVEPKSCDKTHTCPPCPAPEAAGGPSVFLFPPKPKDTLMISRTPEVTCVVVDVSHEDPEVKFNWYVDGVEVHNAKTKPREEQYASTYRVVSVLTVLHQDWLNGKEYKCKVSNKALPAPIEKTISKAKGQPREPQVYTLPPSRCELTKNQVSLSCAVKGFYPSDIAVEWESNGQPENNYKTTPPVLDSDGSFFLVSKLTVDKSRWQQGNVFSCSVMHEALHNHYTQKSLSLSPDYKDDDDK EPKSSDKTHTCPPCPAPELLGGPSVFLFPPKPKDTLMISRTPEVTCVVVDVSHEDPEVKFNWYVDGVEVHNAKTKPREEQYNSTYRVVSVLTVLHQDWLNGKEYKCKVSNKALPAPIEKTISKAKGQPREPQVCTLPPSRDELTKNQVSLWCLVKGFYPSDIAVEWESNGQPENNYKTTPPVLDSDGSFFLYSKLTVDKSRWQQGNVFSCSVMHEALHNRYTQKSLSLSP", "ratio of amounts bound (altered form/GLS3000)": 0.71}
{"binder": "GLS3000 V94G one-arm antibody (antibody, human IgG1, kappa, L234A L235A, N297A, name in Kabat numbering) light: DIVMTQSPLSLPVTPGEPASISCRSSQSLVHSNRNTYLHWYQQKPGQAPRLLIYKVSNRFSGVPDRFSGSGSGTDFTLKISRVEAEDVGVYYCGQGTQGPYTFGQGTKLEIKRTVAAPSVFIFPPSDEQLKSGTASVVCLLNNFYPREAKVQWKVDNALQSGNSQESVTEQDSKDSTYSLSSTLTLSKADYEKHKVYACEVTHQGLSSPVTKSFNRGEC heavy: QVQLVESGGGVVQPGRSLRLSCAASGFTFSNAWMHWVRQAPGKGLEWVAQIKAKSNNYATYYAESVKGRFTISRDDSKNSLYLQMNSLKTEDTAVYYCRYVHYGAYYGVDAWGQGTTVTVSSASTKGPSVFPLAPSSKSTSGGTAALGCLVKDYFPEPVTVSWNSGALTSGVHTFPAVLQSSGLYSLSSVVTVPSSSLGTQTYICNVNHKPSNTKVDKKVEPKSCDKTHTCPPCPAPEAAGGPSVFLFPPKPKDTLMISRTPEVTCVVVDVSHEDPEVKFNWYVDGVEVHNAKTKPREEQYASTYRVVSVLTVLHQDWLNGKEYKCKVSNKALPAPIEKTISKAKGQPREPQVYTLPPSRCELTKNQVSLSCAVKGFYPSDIAVEWESNGQPENNYKTTPPVLDSDGSFFLVSKLTVDKSRWQQGNVFSCSVMHEALHNHYTQKSLSLSPDYKDDDDK EPKSSDKTHTCPPCPAPELLGGPSVFLFPPKPKDTLMISRTPEVTCVVVDVSHEDPEVKFNWYVDGVEVHNAKTKPREEQYNSTYRVVSVLTVLHQDWLNGKEYKCKVSNKALPAPIEKTISKAKGQPREPQVCTLPPSRDELTKNQVSLWCLVKGFYPSDIAVEWESNGQPENNYKTTPPVLDSDGSFFLYSKLTVDKSRWQQGNVFSCSVMHEALHNRYTQKSLSLSP", "ratio of amounts bound (altered form/GLS3000)": 0.48}
{"binder": "GLS3000 V94H one-arm antibody (antibody, human IgG1, kappa, L234A L235A, N297A, name in Kabat numbering) light: DIVMTQSPLSLPVTPGEPASISCRSSQSLVHSNRNTYLHWYQQKPGQAPRLLIYKVSNRFSGVPDRFSGSGSGTDFTLKISRVEAEDVGVYYCGQGTQHPYTFGQGTKLEIKRTVAAPSVFIFPPSDEQLKSGTASVVCLLNNFYPREAKVQWKVDNALQSGNSQESVTEQDSKDSTYSLSSTLTLSKADYEKHKVYACEVTHQGLSSPVTKSFNRGEC heavy: QVQLVESGGGVVQPGRSLRLSCAASGFTFSNAWMHWVRQAPGKGLEWVAQIKAKSNNYATYYAESVKGRFTISRDDSKNSLYLQMNSLKTEDTAVYYCRYVHYGAYYGVDAWGQGTTVTVSSASTKGPSVFPLAPSSKSTSGGTAALGCLVKDYFPEPVTVSWNSGALTSGVHTFPAVLQSSGLYSLSSVVTVPSSSLGTQTYICNVNHKPSNTKVDKKVEPKSCDKTHTCPPCPAPEAAGGPSVFLFPPKPKDTLMISRTPEVTCVVVDVSHEDPEVKFNWYVDGVEVHNAKTKPREEQYASTYRVVSVLTVLHQDWLNGKEYKCKVSNKALPAPIEKTISKAKGQPREPQVYTLPPSRCELTKNQVSLSCAVKGFYPSDIAVEWESNGQPENNYKTTPPVLDSDGSFFLVSKLTVDKSRWQQGNVFSCSVMHEALHNHYTQKSLSLSPDYKDDDDK EPKSSDKTHTCPPCPAPELLGGPSVFLFPPKPKDTLMISRTPEVTCVVVDVSHEDPEVKFNWYVDGVEVHNAKTKPREEQYNSTYRVVSVLTVLHQDWLNGKEYKCKVSNKALPAPIEKTISKAKGQPREPQVCTLPPSRDELTKNQVSLWCLVKGFYPSDIAVEWESNGQPENNYKTTPPVLDSDGSFFLYSKLTVDKSRWQQGNVFSCSVMHEALHNRYTQKSLSLSP", "ratio of amounts bound (altered form/GLS3000)": 0.78}
{"binder": "GLS3000 V94I one-arm antibody (antibody, human IgG1, kappa, L234A L235A, N297A, name in Kabat numbering) light: DIVMTQSPLSLPVTPGEPASISCRSSQSLVHSNRNTYLHWYQQKPGQAPRLLIYKVSNRFSGVPDRFSGSGSGTDFTLKISRVEAEDVGVYYCGQGTQIPYTFGQGTKLEIKRTVAAPSVFIFPPSDEQLKSGTASVVCLLNNFYPREAKVQWKVDNALQSGNSQESVTEQDSKDSTYSLSSTLTLSKADYEKHKVYACEVTHQGLSSPVTKSFNRGEC heavy: QVQLVESGGGVVQPGRSLRLSCAASGFTFSNAWMHWVRQAPGKGLEWVAQIKAKSNNYATYYAESVKGRFTISRDDSKNSLYLQMNSLKTEDTAVYYCRYVHYGAYYGVDAWGQGTTVTVSSASTKGPSVFPLAPSSKSTSGGTAALGCLVKDYFPEPVTVSWNSGALTSGVHTFPAVLQSSGLYSLSSVVTVPSSSLGTQTYICNVNHKPSNTKVDKKVEPKSCDKTHTCPPCPAPEAAGGPSVFLFPPKPKDTLMISRTPEVTCVVVDVSHEDPEVKFNWYVDGVEVHNAKTKPREEQYASTYRVVSVLTVLHQDWLNGKEYKCKVSNKALPAPIEKTISKAKGQPREPQVYTLPPSRCELTKNQVSLSCAVKGFYPSDIAVEWESNGQPENNYKTTPPVLDSDGSFFLVSKLTVDKSRWQQGNVFSCSVMHEALHNHYTQKSLSLSPDYKDDDDK EPKSSDKTHTCPPCPAPELLGGPSVFLFPPKPKDTLMISRTPEVTCVVVDVSHEDPEVKFNWYVDGVEVHNAKTKPREEQYNSTYRVVSVLTVLHQDWLNGKEYKCKVSNKALPAPIEKTISKAKGQPREPQVCTLPPSRDELTKNQVSLWCLVKGFYPSDIAVEWESNGQPENNYKTTPPVLDSDGSFFLYSKLTVDKSRWQQGNVFSCSVMHEALHNRYTQKSLSLSP", "ratio of amounts bound (altered form/GLS3000)": 0.66}
{"binder": "GLS3000 V94K one-arm antibody (antibody, human IgG1, kappa, L234A L235A, N297A, name in Kabat numbering) light: DIVMTQSPLSLPVTPGEPASISCRSSQSLVHSNRNTYLHWYQQKPGQAPRLLIYKVSNRFSGVPDRFSGSGSGTDFTLKISRVEAEDVGVYYCGQGTQKPYTFGQGTKLEIKRTVAAPSVFIFPPSDEQLKSGTASVVCLLNNFYPREAKVQWKVDNALQSGNSQESVTEQDSKDSTYSLSSTLTLSKADYEKHKVYACEVTHQGLSSPVTKSFNRGEC heavy: QVQLVESGGGVVQPGRSLRLSCAASGFTFSNAWMHWVRQAPGKGLEWVAQIKAKSNNYATYYAESVKGRFTISRDDSKNSLYLQMNSLKTEDTAVYYCRYVHYGAYYGVDAWGQGTTVTVSSASTKGPSVFPLAPSSKSTSGGTAALGCLVKDYFPEPVTVSWNSGALTSGVHTFPAVLQSSGLYSLSSVVTVPSSSLGTQTYICNVNHKPSNTKVDKKVEPKSCDKTHTCPPCPAPEAAGGPSVFLFPPKPKDTLMISRTPEVTCVVVDVSHEDPEVKFNWYVDGVEVHNAKTKPREEQYASTYRVVSVLTVLHQDWLNGKEYKCKVSNKALPAPIEKTISKAKGQPREPQVYTLPPSRCELTKNQVSLSCAVKGFYPSDIAVEWESNGQPENNYKTTPPVLDSDGSFFLVSKLTVDKSRWQQGNVFSCSVMHEALHNHYTQKSLSLSPDYKDDDDK EPKSSDKTHTCPPCPAPELLGGPSVFLFPPKPKDTLMISRTPEVTCVVVDVSHEDPEVKFNWYVDGVEVHNAKTKPREEQYNSTYRVVSVLTVLHQDWLNGKEYKCKVSNKALPAPIEKTISKAKGQPREPQVCTLPPSRDELTKNQVSLWCLVKGFYPSDIAVEWESNGQPENNYKTTPPVLDSDGSFFLYSKLTVDKSRWQQGNVFSCSVMHEALHNRYTQKSLSLSP", "ratio of amounts bound (altered form/GLS3000)": 0.57}
